Laboratory results reported in patent US20260295010 (published 2026).
Read-outs that look alike come from different tables or passages of the source.

T1: IL-12RB2-hFc (human, UniProt Q99665)
T1 chain: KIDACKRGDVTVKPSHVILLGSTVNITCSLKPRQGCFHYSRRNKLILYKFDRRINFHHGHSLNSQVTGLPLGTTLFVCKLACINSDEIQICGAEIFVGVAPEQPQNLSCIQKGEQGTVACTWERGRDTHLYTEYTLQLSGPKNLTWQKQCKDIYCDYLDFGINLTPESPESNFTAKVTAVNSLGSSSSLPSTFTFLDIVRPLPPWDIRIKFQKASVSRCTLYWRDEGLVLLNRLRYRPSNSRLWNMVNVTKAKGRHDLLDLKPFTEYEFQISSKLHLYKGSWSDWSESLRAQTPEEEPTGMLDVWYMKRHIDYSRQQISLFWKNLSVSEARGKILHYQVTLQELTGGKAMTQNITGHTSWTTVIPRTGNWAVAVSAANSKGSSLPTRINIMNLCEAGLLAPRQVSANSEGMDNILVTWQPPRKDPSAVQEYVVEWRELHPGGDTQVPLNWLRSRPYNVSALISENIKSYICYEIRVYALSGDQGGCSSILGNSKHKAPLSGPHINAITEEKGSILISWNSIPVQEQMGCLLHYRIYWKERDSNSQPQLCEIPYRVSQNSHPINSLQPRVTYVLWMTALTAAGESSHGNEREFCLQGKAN


Experiments:
Test in all cases: SPR, 25C
IL-12RB2-hFc [1] = target: T1, IL-12RB2-hFc
IL-12RB1-hFc [2] = target: T2, IL-12RB1-hFc (human, UniProt P42701)
IL-12RB2-hFc [3] = target: T1, IL-12RB2-hFc
IL-12RB1-hFc [4] = target: T2, IL-12RB1-hFc; remark: listed apart in the source

Kd (IL-12RB2-hFc [1]) [nM] | further results | Binder
1.9 |  | IL-12p70 W16A D94K K196E K259Y (protein) chain 1: MIWELKKDVYVVELDAYPDAPGEMVVLTCDTPEEDGITWTLDQSSEVLGSGKTLTIQVKEFGDAGQYTCHKGGEVLSHSLLLLHKKEDGIWSTKILKDQKEPKNKTFLRCEAKNYSGRFTCWWLTTISTDLTFSVKSSRGSSDPQGVTCGAATLSAERVRGDNKEYEYSVECQEDSACPAAEESLPIEVMVDAVHELKYENYTSSFFIRDIIKPDPPKNLQLKPLKNSRQVEVSWEYPDTWSTPHSYFSLTFSVQVQGYSKREKKDRVFTDKTSATVICRKNASISVRAQDRYYSSSWSEWASVPCSGGGSHHHHHH chain 2: MRNLPVATPDPGMFPSLHHSQNLLRAVSNMLQKARQTLEFYPCTSEEIDHEDITKDKTSTVEACLPLELTKNESCLNSRETSFITNGSSLASRKTSFMMALCLSSIYEDLKMYQVEFKTMNAKLLMDPKRQIFLDQNMLAVIDELMQALNFNSETVPQKSSLEEPDFYKTKIKLCILLHAFRIRAVTIDRVMSYLNAS
2.3 |  | IL-12p70 W16A D94K K196E (protein) chain 1: MIWELKKDVYVVELDAYPDAPGEMVVLTCDTPEEDGITWTLDQSSEVLGSGKTLTIQVKEFGDAGQYTCHKGGEVLSHSLLLLHKKEDGIWSTKILKDQKEPKNKTFLRCEAKNYSGRFTCWWLTTISTDLTFSVKSSRGSSDPQGVTCGAATLSAERVRGDNKEYEYSVECQEDSACPAAEESLPIEVMVDAVHELKYENYTSSFFIRDIIKPDPPKNLQLKPLKNSRQVEVSWEYPDTWSTPHSYFSLTFSVQVQGKSKREKKDRVFTDKTSATVICRKNASISVRAQDRYYSSSWSEWASVPCSGGGSHHHHHH chain 2: MRNLPVATPDPGMFPSLHHSQNLLRAVSNMLQKARQTLEFYPCTSEEIDHEDITKDKTSTVEACLPLELTKNESCLNSRETSFITNGSSLASRKTSFMMALCLSSIYEDLKMYQVEFKTMNAKLLMDPKRQIFLDQNMLAVIDELMQALNFNSETVPQKSSLEEPDFYKTKIKLCILLHAFRIRAVTIDRVMSYLNAS
4.6 |  | IL-12p70 W16A D94K K196E K265Y (protein) chain 1: MIWELKKDVYVVELDAYPDAPGEMVVLTCDTPEEDGITWTLDQSSEVLGSGKTLTIQVKEFGDAGQYTCHKGGEVLSHSLLLLHKKEDGIWSTKILKDQKEPKNKTFLRCEAKNYSGRFTCWWLTTISTDLTFSVKSSRGSSDPQGVTCGAATLSAERVRGDNKEYEYSVECQEDSACPAAEESLPIEVMVDAVHELKYENYTSSFFIRDIIKPDPPKNLQLKPLKNSRQVEVSWEYPDTWSTPHSYFSLTFSVQVQGKSKREKYDRVFTDKTSATVICRKNASISVRAQDRYYSSSWSEWASVPCSGGGSHHHHHH chain 2: MRNLPVATPDPGMFPSLHHSQNLLRAVSNMLQKARQTLEFYPCTSEEIDHEDITKDKTSTVEACLPLELTKNESCLNSRETSFITNGSSLASRKTSFMMALCLSSIYEDLKMYQVEFKTMNAKLLMDPKRQIFLDQNMLAVIDELMQALNFNSETVPQKSSLEEPDFYKTKIKLCILLHAFRIRAVTIDRVMSYLNAS
 | Kd (IL-12RB1-hFc [2]): 0.04 nM; Kd (IL-12RB2-hFc [3]): 0.5 nM | IL-12p70 T203A (protein) chain 1: MIWELKKDVYVVELDWYPDAPGEMVVLTCDTPEEDGITWTLDQSSEVLGSGKTLTIQVKEFGDAGQYTCHKGGEVLSHSLLLLHKKEDGIWSTDILKDQKEPKNKTFLRCEAKNYSGRFTCWWLTTISTDLTFSVKSSRGSSDPQGVTCGAATLSAERVRGDNKEYEYSVECQEDSACPAAEESLPIEVMVDAVHKLKYENYASSFFIRDIIKPDPPKNLQLKPLKNSRQVEVSWEYPDTWSTPHSYFSLTFSVQVQGKSKREKKDRVFTDKTSATVICRKNASISVRAQDRYYSSSWSEWASVPCSGGGSHHHHHH chain 2: MRNLPVATPDPGMFPSLHHSQNLLRAVSNMLQKARQTLEFYPCTSEEIDHEDITKDKTSTVEACLPLELTKNESCLNSRETSFITNGSSLASRKTSFMMALCLSSIYEDLKMYQVEFKTMNAKLLMDPKRQIFLDQNMLAVIDELMQALNFNSETVPQKSSLEEPDFYKTKIKLCILLHAFRIRAVTIDRVMSYLNAS
1.6 | Kd (IL-12RB1-hFc [4]): 1.1 nM | IL-12p70 K105E K265Y (protein) chain 1: MIWELKKDVYVVELDWYPDAPGEMVVLTCDTPEEDGITWTLDQSSEVLGSGKTLTIQVKEFGDAGQYTCHKGGEVLSHSLLLLHKKEDGIWSTDILKDQKEPKNETFLRCEAKNYSGRFTCWWLTTISTDLTFSVKSSRGSSDPQGVTCGAATLSAERVRGDNKEYEYSVECQEDSACPAAEESLPIEVMVDAVHKLKYENYTSSFFIRDIIKPDPPKNLQLKPLKNSRQVEVSWEYPDTWSTPHSYFSLTFSVQVQGKSKREKYDRVFTDKTSATVICRKNASISVRAQDRYYSSSWSEWASVPCSGGGSHHHHHH chain 2: MRNLPVATPDPGMFPSLHHSQNLLRAVSNMLQKARQTLEFYPCTSEEIDHEDITKDKTSTVEACLPLELTKNESCLNSRETSFITNGSSLASRKTSFMMALCLSSIYEDLKMYQVEFKTMNAKLLMDPKRQIFLDQNMLAVIDELMQALNFNSETVPQKSSLEEPDFYKTKIKLCILLHAFRIRAVTIDRVMSYLNAS
2.3 |  | IL-12p70 D94K K196E (protein) chain 1: MIWELKKDVYVVELDWYPDAPGEMVVLTCDTPEEDGITWTLDQSSEVLGSGKTLTIQVKEFGDAGQYTCHKGGEVLSHSLLLLHKKEDGIWSTKILKDQKEPKNKTFLRCEAKNYSGRFTCWWLTTISTDLTFSVKSSRGSSDPQGVTCGAATLSAERVRGDNKEYEYSVECQEDSACPAAEESLPIEVMVDAVHELKYENYTSSFFIRDIIKPDPPKNLQLKPLKNSRQVEVSWEYPDTWSTPHSYFSLTFSVQVQGKSKREKKDRVFTDKTSATVICRKNASISVRAQDRYYSSSWSEWASVPCSGGGSHHHHHH chain 2: MRNLPVATPDPGMFPSLHHSQNLLRAVSNMLQKARQTLEFYPCTSEEIDHEDITKDKTSTVEACLPLELTKNESCLNSRETSFITNGSSLASRKTSFMMALCLSSIYEDLKMYQVEFKTMNAKLLMDPKRQIFLDQNMLAVIDELMQALNFNSETVPQKSSLEEPDFYKTKIKLCILLHAFRIRAVTIDRVMSYLNAS
3 |  | IL-12p70 W16A D94K K196E L197A (protein) chain 1: MIWELKKDVYVVELDAYPDAPGEMVVLTCDTPEEDGITWTLDQSSEVLGSGKTLTIQVKEFGDAGQYTCHKGGEVLSHSLLLLHKKEDGIWSTKILKDQKEPKNKTFLRCEAKNYSGRFTCWWLTTISTDLTFSVKSSRGSSDPQGVTCGAATLSAERVRGDNKEYEYSVECQEDSACPAAEESLPIEVMVDAVHEAKYENYTSSFFIRDIIKPDPPKNLQLKPLKNSRQVEVSWEYPDTWSTPHSYFSLTFSVQVQGKSKREKKDRVFTDKTSATVICRKNASISVRAQDRYYSSSWSEWASVPCSGGGSHHHHHH chain 2: MRNLPVATPDPGMFPSLHHSQNLLRAVSNMLQKARQTLEFYPCTSEEIDHEDITKDKTSTVEACLPLELTKNESCLNSRETSFITNGSSLASRKTSFMMALCLSSIYEDLKMYQVEFKTMNAKLLMDPKRQIFLDQNMLAVIDELMQALNFNSETVPQKSSLEEPDFYKTKIKLCILLHAFRIRAVTIDRVMSYLNAS
2.8 |  | IL-12p70 W16A K196E (protein) chain 1: MIWELKKDVYVVELDAYPDAPGEMVVLTCDTPEEDGITWTLDQSSEVLGSGKTLTIQVKEFGDAGQYTCHKGGEVLSHSLLLLHKKEDGIWSTDILKDQKEPKNKTFLRCEAKNYSGRFTCWWLTTISTDLTFSVKSSRGSSDPQGVTCGAATLSAERVRGDNKEYEYSVECQEDSACPAAEESLPIEVMVDAVHELKYENYTSSFFIRDIIKPDPPKNLQLKPLKNSRQVEVSWEYPDTWSTPHSYFSLTFSVQVQGKSKREKKDRVFTDKTSATVICRKNASISVRAQDRYYSSSWSEWASVPCSGGGSHHHHHH chain 2: MRNLPVATPDPGMFPSLHHSQNLLRAVSNMLQKARQTLEFYPCTSEEIDHEDITKDKTSTVEACLPLELTKNESCLNSRETSFITNGSSLASRKTSFMMALCLSSIYEDLKMYQVEFKTMNAKLLMDPKRQIFLDQNMLAVIDELMQALNFNSETVPQKSSLEEPDFYKTKIKLCILLHAFRIRAVTIDRVMSYLNAS
4 | Kd (IL-12RB1-hFc [4]): 1.8 nM | IL-12p70 K105E K259Y K265Y (protein) chain 1: MIWELKKDVYVVELDWYPDAPGEMVVLTCDTPEEDGITWTLDQSSEVLGSGKTLTIQVKEFGDAGQYTCHKGGEVLSHSLLLLHKKEDGIWSTDILKDQKEPKNETFLRCEAKNYSGRFTCWWLTTISTDLTFSVKSSRGSSDPQGVTCGAATLSAERVRGDNKEYEYSVECQEDSACPAAEESLPIEVMVDAVHKLKYENYTSSFFIRDIIKPDPPKNLQLKPLKNSRQVEVSWEYPDTWSTPHSYFSLTFSVQVQGYSKREKYDRVFTDKTSATVICRKNASISVRAQDRYYSSSWSEWASVPCSGGGSHHHHHH chain 2: MRNLPVATPDPGMFPSLHHSQNLLRAVSNMLQKARQTLEFYPCTSEEIDHEDITKDKTSTVEACLPLELTKNESCLNSRETSFITNGSSLASRKTSFMMALCLSSIYEDLKMYQVEFKTMNAKLLMDPKRQIFLDQNMLAVIDELMQALNFNSETVPQKSSLEEPDFYKTKIKLCILLHAFRIRAVTIDRVMSYLNAS
2.4 |  | IL-12p70 W16A D94K (protein) chain 1: MIWELKKDVYVVELDAYPDAPGEMVVLTCDTPEEDGITWTLDQSSEVLGSGKTLTIQVKEFGDAGQYTCHKGGEVLSHSLLLLHKKEDGIWSTKILKDQKEPKNKTFLRCEAKNYSGRFTCWWLTTISTDLTFSVKSSRGSSDPQGVTCGAATLSAERVRGDNKEYEYSVECQEDSACPAAEESLPIEVMVDAVHKLKYENYTSSFFIRDIIKPDPPKNLQLKPLKNSRQVEVSWEYPDTWSTPHSYFSLTFSVQVQGKSKREKKDRVFTDKTSATVICRKNASISVRAQDRYYSSSWSEWASVPCSGGGSHHHHHH chain 2: MRNLPVATPDPGMFPSLHHSQNLLRAVSNMLQKARQTLEFYPCTSEEIDHEDITKDKTSTVEACLPLELTKNESCLNSRETSFITNGSSLASRKTSFMMALCLSSIYEDLKMYQVEFKTMNAKLLMDPKRQIFLDQNMLAVIDELMQALNFNSETVPQKSSLEEPDFYKTKIKLCILLHAFRIRAVTIDRVMSYLNAS
